One assay deals with T1, Aβ(pE11-18)-PEG peptide (reading uncertain).
T1 construct: The PEG attachment is not described further
T1 peptide: [pGlu]VHHQKLV-{PEG}
The experiment in a line: ITC at 20 °C, peptide titrated into biotinylated antibody. Here is the method:
1.3.4.1 Determination of Thermodynamic Parameters With ITC, the thermodynamic parameters of the binding of anti Aβ11(pE) antibody from clone 13 at antigen Aβ11(pE) was determined. For the ITC experiment, the peptide Aβ(pE11-18)-PEG was used because the hydrophilic PEG group imparts hydrophilic properties and so it was possible to dissolve the peptide directly in ITC buffer. Former experiments with Aβ(pE11-20) could only be performed with 1-2% DMSO, due to the strong hydrophobicity of the peptide it was necessary to dissolve it with DMSO which could have an effect on the ITC binding properties. At first the antibody was dialyzed against ITC buffer (150 mM NaCl, 25 mM Na₂HPO₄, 25 mM KH₂PO₄, 1 mM EDTA, pH=7.1) over night at 4° C. The lyophilised peptide, stored at −20° C., was dissolved in identical ITC buffer pH=7.1 which was used for antibody dialysis. Both antibody and antigen must be in identical solutions, otherwise large heats of dilution will mask the desired observation. Before the ITC experiment, the concentration of antibody was determined by UV/VIS spectroscopy (see section 1.3.1). At first the antibody with e.g. 5.13 μM (see Table 4) was added into the sample cell and the reference cell was filled with distilled water. Then the antigen was injected into the sample cell with e.g. 81.78 μM (see Table 4). The antigen should be generally in twofold excess to the antibody, bearing in mind that an antibody has two binding sites the antigen was in the cell at least in fourfold excess to the antibody. The 30 injections (1×2 μl and 29×10 μl) were made with a 4-min interval between subsequent injections. The measurement of heat of reaction was performed at 20° C. Furthermore the heat of reaction was determined which was only generated by dilution of the antigen through the titration into ITC buffer (pH=7.1). Therefore the antigen was injected into the sample cell filled with ITC buffer. The heat of reaction which was generated during the titration of the antigen to the antibody was corrected about this value. The analysis of raw data and the determination of the association constant (KA), reaction stoichiometry (n), binding enthalpy (ΔH) and entropy (ΔS) was performed with Origin Software of MicroCal.

For a further assay, the target named is T2, Aβ(pE11-30) peptide (N-terminal pyroglutamate (Aβ position 11)).
T2 construct: Synthesized peptide; Amine-coupled to a CM5 chip for SPR, or adsorbed to the microplate for the direct ELISA
T2 peptide: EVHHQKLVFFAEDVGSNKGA
The experiment in a line: direct ELISA: AβpE(11-30) coated at 0-500 ng/ml, 1 µg/ml biotinylated antibody pre-incubated with streptavidin-HRP, absorption 450/540 nm. Here is the method: AβpE(11-30) peptide with different concentrations was coated over night at 4° C. and then blocked with ELISA-Blocker (−T) 2 h at RT. Anti Aβ11(pE) antibody (clone 13) biotinylated was pre-incubated with streptavidin-HRP conjugate 10 min at RT and diluted in ELISA-Blocker (+T) were performed. Addition of 1 μg/ml antibody (clone 13). Wash cycles in-between incubations with 6×300 μl/well TBS-T buffer (except after peptide coating). TMB/H₂O₂ were added, incubated 30 min at RT (dark) and enzyme reaction was stopped with 1 M H₂SO₄. Absorption was measured at 450/540 nm at TECAN Sunrise.
(In general: ELISA stands for enzyme-linked immunosorbent assay.)

Square brackets hold non-standard residues; d marks the D form. pGlu = O=C1CC[C@@H](C(=O)O)N1; PEG = not defined here

For orientation: Kd means the concentration at which binding is half-saturated.

B1: biotinylated monoclonal mouse anti Aβ11(pE) antibody (clone 13) (antibody, V domains shown)
VH: QVQLQQPGTELVKPGASVKLSCKASGFTFTSYWMHWVRQRPGQGLEWIGEINPSNGRTNYNEKFKSKATLTVDKSSSTAYMQLSSLTSEDSEVYYCARGDLAWDWSAYWGQGTLVTVSA
VL: DIVMSQSPSSLAVSAGEKVTMSCKSSQSLFYSRTRKNYLAWYQQKPGQSPKLLIYWASTRESGVPDRFTGSGSGTDFTLTISSVQAEDLAVYYCKQSYNLWSFGGGTKLEIKR
modifications: about 2 biotin molecules (NHS-PEO4-Biotin) coupled per antibody; sites not stated
notes: Mouse IgG; also called anti Aβ11(pE)-biotin antibody (clone 13); mAb mouse anti Aβ11(pE)-Biotin
In the case of B1, in the assay with Aβ(pE11-18)-PEG peptide, the “-TΔS” value was -0.98 kcal/mol; the Ka came to 8e+06 M⁻¹; the affinity, expressed as Kd, was 125 nM; the “Stoichiometry (N)” value came out at 1.66. Moreover, in the assay with Aβ(pE11-30) peptide, the binding result is recorded as “binds”.

Values taken from US20140255414A1 (PROBIODRUG, published 2014).
